{
  "source": "patent EP4371564A2",
  "target": "integrin molecules on human cells",
  "experiment": "cell-based or functional assay",
  "data": [
    {"binder": "RGD-Hoc (SEQ ID NO: 19), P18056 1-376 (protein) CDCRGDCFCSAMTFTVDITPKTPTGVIDETKQFTATPSGQTGGGTITYAWSVDNVPQDGAEATFSYVLKGPAGQKTIKVVATNTLSEGGPETAEATTTITVKNKTQTTTLAVTPASPAAGVIGTPVQFTAALASQPDGASATYQWYVDDSQVGGETNSTFSYTPTTSGVKRIKCVAQVTATDYDALSVTSNEVSLTVNKKTMNPQVTLTPPSINVQQDASATFTANVTGAPEEAQITYSWKKDSSPVEGSTNVYTVDTSSVGSQTIEVTATVTAADYNPVTVTKTGNVTVTAKVAPEPEGELPYVHPLPHRSSAYIWCGWWVMDEIQKMTEEGKDWKTDDPDSKYYLHRYTLQKMMKDYPEVDVQESRNGYIIHKTALETGIIYTYPKLAAALEHHHHHH", "values": [
      {"measurement": "luciferase activity", "result": 5, "unit": "fold"}
    ]}
  ]
}
